# Measured values taken from PMC10540216, “Activity Guided Azide-methyllysine Photo-trapping for Substrate Profiling of Lysine Demethylases” (Journal of the American Chemical Society, 2023).
# B1: P66A_HUMAN (protein, UniProt Q86YP4 1-633, looked up)
# Transcriptional repressor …: MTEEACRTRSQKRALERDPTEDDVESKKIKMERGLLASDLNTDGDMRVTPEPGAGPTQGLLRATEATAMAMGRGEGLVGDGPVDMRTSHSDMKSERRPPSPDVIVLSDNEQPSSPRVNGLTTVALKETSTEALMKSSPEERERMIKQLKEELRLEEAKLVLLKKLRQSQIQKEATAQKPTGSVGSTVTTPPPLVRGTQNIPAGKPSLQTSSARMPGSVIPPPLVRGGQQASSKLGPQASSQVVMPPLVRGAQQIHSIRQHSSTGPPPLLLAPRASVPSVQIQGQRIIQQGLIRVANVPNTSLLVNIPQPTPASLKGTTATSAQANSTPTSVASVVTSAESPASRQAAAKLALRKQLEKTLLEIPPPKPPAPEMNFLPSAANNEFIYLVGLEEVVQNLLETQGRMSAATVLSREPYMCAQCKTDFTCRWREEKSGAIMCENCMTTNQKKALKVEHTSRLKAAFVKALQQEQEIEQRLLQQGTAPAQAKAEPTAAPHPVLKQVIKPRRKLAFRSGEARDWSNGAVLQASSQLSRGSATTPRGVLHTFSPSPKLQNSASATALVSRTGRHSERTVSAGKGSATSNWKKTPLSTGGTLAFVSPSLAVHKSSSAVDRQREYLLDMIPPRSIPQSATWK
# B2: ODP2_HUMAN (protein, UniProt P10515 87-647, looked up)
# Dihydrolipoyllysine-residue …: SLPPHQKVPLPSLSPTMQAGTIARWEKKEGDKINEGDLIAEVETDKATVGFESLEECYMAKILVAEGTRDVPIGAIICITVGKPEDIEAFKNYTLDSSAAPTPQAAPAPTPAATASPPTPSAQAPGSSYPPHMQVLLPALSPTMTMGTVQRWEKKVGEKLSEGDLLAEIETDKATIGFEVQEEGYLAKILVPEGTRDVPLGTPLCIIVEKEADISAFADYRPTEVTDLKPQVPPPTPPPVAAVPPTPQPLAPTPSAPCPATPAGPKGRVFVSPLAKKLAVEKGIDLTQVKGTGPDGRITKKDIDSFVPSKVAPAPAAVVPPTGPGMAPVPTGVFTDIPISNIRRVIAQRLMQSKQTIPHYYLSIDVNMGEVLLVRKELNKILEGRSKISVNDFIIKASALACLKVPEANSSWMDTVIRQNHVVDVSVAVSTPAGLITPIVFNAHIKGVETIANDVVSLATKAREGKLQPHEFQGGTFTISNLGMFGIKNFSAIINPPQACILAIGASEDKLVPADNEKGFDVASMMSVTLSCDHRVVDGAVGAQWLAEFRKYLEKPITMLL
# B3: CSTF3_HUMAN (protein, UniProt Q12996 2-717, looked up)
# Cleavage stimulation factor …: SGDGATEQAAEYVPEKVKKAEKKLEENPYDLDAWSILIREAQNQPIDKARKTYERLVAQFPSSGRFWKLYIEAEIKAKNYDKVEKLFQRCLMKVLHIDLWKCYLSYVRETKGKLPSYKEKMAQAYDFALDKIGMEIMSYQIWVDYINFLKGVEAVGSYAENQRITAVRRVYQRGCVNPMINIEQLWRDYNKYEEGINIHLAKKMIEDRSRDYMNARRVAKEYETVMKGLDRNAPSVPPQNTPQEAQQVDMWKKYIQWEKSNPLRTEDQTLITKRVMFAYEQCLLVLGHHPDIWYEAAQYLEQSSKLLAEKGDMNNAKLFSDEAANIYERAISTLLKKNMLLYFAYADYEESRMKYEKVHSIYNRLLAIEDIDPTLVYIQYMKFARRAEGIKSGRMIFKKAREDTRTRHHVYVTAALMEYYCSKDKSVAFKIFELGLKKYGDIPEYVLAYIDYLSHLNEDNNTRVLFERVLTSGSLPPEKSGEIWARFLAFESNIGDLASILKVEKRRFTAFKEEYEGKETALLVDRYKFMDLYPCSASELKALGYKDVSRAKLAAIIPDPVVAPSIVPVLKDEVDRKPEYPKPDTQQMIPFQPRHLAPPGLHPVPGGVFPVPPAAVVLMKLLPPPICFQGPFVQVDELMEIFRRCKIPNTVEEAVRIITGGAPELAVEGNGPVESNAVLTKAVKRPNEDSDEDEEKGAVVPPVHDIYRARQQKRIR
# B4: MTA2_HUMAN (protein, UniProt O94776 1-668, looked up)
# Metastasis-associated protein …: MAANMYRVGDYVYFENSSSNPYLVRRIEELNKTANGNVEAKVVCLFRRRDISSSLNSLADSNAREFEEESKQPGVSEQQRHQLKHRELFLSRQFESLPATHIRGKCSVTLLNETDILSQYLEKEDCFFYSLVFDPVQKTLLADQGEIRVGCKYQAEIPDRLVEGESDNRNQQKMEMKVWDPDNPLTDRQIDQFLVVARAVGTFARALDCSSSIRQPSLHMSAAAASRDITLFHAMDTLQRNGYDLAKAMSTLVPQGGPVLCRDEMEEWSASEAMLFEEALEKYGKDFNDIRQDFLPWKSLASIVQFYYMWKTTDRYIQQKRLKAAEADSKLKQVYIPTYTKPNPNQIISVGSKPGMNGAGFQKGLTCESCHTTQSAQWYAWGPPNMQCRLCASCWIYWKKYGGLKTPTQLEGATRGTTEPHSRGHLSRPEAQSLSPYTTSANRAKLLAKNRQTFLLQTTKLTRLARRMCRDLLQPRRAARRPYAPINANAIKAECSIRLPKAAKTPLKIHPLVRLPLATIVKDLVAQAPLKPKTPRGTKTPINRNQLSQNRGLGGIMVKRAYETMAGAGVPFSANGRPLASGIRSSSQPAAKRQKLNPADAPNPVVFVATKDTRALRKALTHLEMRRAARRPNLPLKVKPTLIAVRPPVPLPAPSHPASTNEPIVLED
# B5: SATB2_HUMAN (protein, UniProt Q9UPW6 1-733, looked up)
# DNA-binding protein SATB2: MERRSESPCLRDSPDRRSGSPDVKGPPPVKVARLEQNGSPMGARGRPNGAVAKAVGGLMIPVFCVVEQLDGSLEYDNREEHAEFVLVRKDVLFSQLVETALLALGYSHSSAAQAQGIIKLGRWNPLPLSYVTDAPDATVADMLQDVYHVVTLKIQLQSCSKLEDLPAEQWNHATVRNALKELLKEMNQSTLAKECPLSQSMISSIVNSTYYANVSATKCQEFGRWYKKYKKIKVERVERENLSDYCVLGQRPMHLPNMNQLASLGKTNEQSPHSQIHHSTPIRNQVPALQPIMSPGLLSPQLSPQLVRQQIAMAHLINQQIAVSRLLAHQHPQAINQQFLNHPPIPRAVKPEPTNSSVEVSPDIYQQVRDELKRASVSQAVFARVAFNRTQGLLSEILRKEEDPRTASQSLLVNLRAMQNFLNLPEVERDRIYQDERERSMNPNVSMVSSASSSPSSSRTPQAKTSTPTTDLPIKVDGANINITAAIYDEIQQEMKRAKVSQALFAKVAANKSQGWLCELLRWKENPSPENRTLWENLCTIRRFLNLPQHERDVIYEEESRHHHSERMQHVVQLPPEPVQVLHRQQSQPAKESSPPREEAPPPPPPTEDSCAKKPRSRTKISLEALGILQSFIHDVGLYPDQEAIHTLSAQLDLPKHTIIKFFQNQRYHVKHHGKLKEHLGSAVDVAEYKDEELLTESEENDSEEGSEEMYKVEAEEENADKSKAAPAEIDQR
# B6: PLOD2_HUMAN (protein, UniProt O00469 26-737, looked up)
# Procollagen-lysine,2-oxoglutar …: ADSEKPSSIPTDKLLVITVATKESDGFHRFMQSAKYFNYTVKVLGQGEEWRGGDGINSIGGGQKVRLMKEVMEHYADQDDLVVMFTECFDVIFAGGPEEVLKKFQKANHKVVFAADGILWPDKRLADKYPVVHIGKRYLNSGGFIGYAPYVNRIVQQWNLQDNDDDQLFYTKVYIDPLKREAINITLDHKCKIFQTLNGAVDEVVLKFENGKARAKNTFYETLPVAINGNGPTKILLNYFGNYVPNSWTQDNGCTLCEFDTVDLSAVDVHPNVSIGVFIEQPTPFLPRFLDILLTLDYPKEALKLFIHNKEVYHEKDIKVFFDKAKHEIKTIKIVGPEENLSQAEARNMGMDFCRQDEKCDYYFSVDADVVLTNPRTLKILIEQNRKIIAPLVTRHGKLWSNFWGALSPDGYYARSEDYVDIVQGNRVGVWNVPYMANVYLIKGKTLRSEMNERNYFVRDKLDPDMALCRNAREMGVFMYISNRHEFGRLLSTANYNTSHYNNDLWQIFENPVDWKEKYINRDYSKIFTENIVEQPCPDVFWFPIFSEKACDELVEEMEHYGKWSGGKHHDSRISGGYENVPTDDIHMKQVDLENVWLHFIREFIAPVTLKVFAGYYTKGFALLNFVVKYSPERQRSLRPHHDASTFTINIALNNVGEDFQGGGCKFLRYNCSIESPRKGWSFMHPGRLTHLHEGLPVKNGTRYIAVSFIDP
# B7: PABP4_HUMAN (protein, UniProt Q13310 1-644, looked up)
# Polyadenylate-binding protein …: MNAAASSYPMASLYVGDLHSDVTEAMLYEKFSPAGPVLSIRVCRDMITRRSLGYAYVNFQQPADAERALDTMNFDVIKGKPIRIMWSQRDPSLRKSGVGNVFIKNLDKSIDNKALYDTFSAFGNILSCKVVCDENGSKGYAFVHFETQEAADKAIEKMNGMLLNDRKVFVGRFKSRKEREAELGAKAKEFTNVYIKNFGEEVDDESLKELFSQFGKTLSVKVMRDPNGKSKGFGFVSYEKHEDANKAVEEMNGKEISGKIIFVGRAQKKVERQAELKRKFEQLKQERISRYQGVNLYIKNLDDTIDDEKLRKEFSPFGSITSAKVMLEDGRSKGFGFVCFSSPEEATKAVTEMNGRIVGSKPLYVALAQRKEERKAHLTNQYMQRVAGMRALPANAILNQFQPAAGGYFVPAVPQAQGRPPYYTPNQLAQMRPNPRWQQGGRPQGFQGMPSAIRQSGPRPTLRHLAPTGSECPDRLAMDFGGAGAAQQGLTDSCQSGGVPTAVQNLAPRAAVAAAAPRAVAPYKYASSVRSPHPAIQPLQAPQPAVHVQGQEPLTASMLAAAPPQEQKQMLGERLFPLIQTMHSNLAGKITGMLLEIDNSELLHMLESPESLRSKVDEAVAVLQAHHAKKEAAQKVGAVAAATS
# B8: DDX1_HUMAN (protein, UniProt Q92499 1-740, looked up)
# ATP-dependent RNA helicase …: MAAFSEMGVMPEIAQAVEEMDWLLPTDIQAESIPLILGGGDVLMAAETGSGKTGAFSIPVIQIVYETLKDQQEGKKGKTTIKTGASVLNKWQMNPYDRGSAFAIGSDGLCCQSREVKEWHGCRATKGLMKGKHYYEVSCHDQGLCRVGWSTMQASLDLGTDKFGFGFGGTGKKSHNKQFDNYGEEFTMHDTIGCYLDIDKGHVKFSKNGKDLGLAFEIPPHMKNQALFPACVLKNAELKFNFGEEEFKFPPKDGFVALSKAPDGYIVKSQHSGNAQVTQTKFLPNAPKALIVEPSRELAEQTLNNIKQFKKYIDNPKLRELLIIGGVAARDQLSVLENGVDIVVGTPGRLDDLVSTGKLNLSQVRFLVLDEADGLLSQGYSDFINRMHNQIPQVTSDGKRLQVIVCSATLHSFDVKKLSEKIMHFPTWVDLKGEDSVPDTVHHVVVPVNPKTDRLWERLGKSHIRTDDVHAKDNTRPGANSPEMWSEAIKILKGEYAVRAIKEHKMDQAIIFCRTKIDCDNLEQYFIQQGGGPDKKGHQFSCVCLHGDRKPHERKQNLERFKKGDVRFLICTDVAARGIDIHGVPYVINVTLPDEKQNYVHRIGRVGRAERMGLAISLVATEKEKVWYHVCSSRGKGCYNTRLKEDGGCTIWYNEMQLLSEIEEHLNCTISQVEPDIKVPVDEFDGKVTYGQKRAAGGGSYKGHVDILAPTVQELAALEKEAQTSFLHLGYLPNQLFRTF
# Test system: KDM4A-I71AzF
# Assay: CASI: photo-crosslinking with HEK293T cell extracts, StrepTactin enrichment and LC-MS/MS proteomics;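 further: lysates from HEK293T cells pretreated with a KDM4 inhibitor to raise proteome methylation, affinity-purified after ±UV, gel-resolved, trypsin-digested, with exclusive unique peptides per protein averaged per condition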
# Type: binding, human
# Details: sheet "Final results but with 0.01"
row,Molecule,Fold change (+UV/-UV)
1,B1,1.5
2,B2,1
3,B3,0
4,B4,4
5,B5,1
6,B6,0.75
7,B7,0
8,B8,1.333
